Values joined by “and” are separate entries in the source; they are usually repeats but may differ in a detail not shown here. Equal entries are not always repeated.
Assays:
[1] = molecular target: the molecule itself; experiment: […], sodium citrate 20 mM pH 4.0, […]
[2] = molecular target: the molecule itself; experiment: static light scattering + SEC

B1: Full-length Ovine PrP 23-234 (Ala-136, Arg-154, Gln-171 variant) (natural protein)
chain: not shown
notes: also called OvPrP; ARQ PrP
**Q.** B1 was tested. Which “stoichiometry N” value [1] did it give?
**A.** 25 to 70 mer

**Q.** And the koff [2]?
**A.** 0.00403 s⁻¹ and 0.0038 s⁻¹ and 0.01 s⁻¹

Source: article PMC5528842, “The mechanism of monomer transfer between two structurally distinct PrP oligomers” (PLoS ONE, 2017)
